Reference: patent publication US20260035475A1 (BIOARCTIC, published 2026)

T1: chimeric TfR1 consisting of human protease like domain grafted on mouse TfR1 ectodomain (SEQ ID NO:78) (human/mouse chimera)
T1 construct: His-tagged; also called h/m protease-like domain chimera
T1 chain: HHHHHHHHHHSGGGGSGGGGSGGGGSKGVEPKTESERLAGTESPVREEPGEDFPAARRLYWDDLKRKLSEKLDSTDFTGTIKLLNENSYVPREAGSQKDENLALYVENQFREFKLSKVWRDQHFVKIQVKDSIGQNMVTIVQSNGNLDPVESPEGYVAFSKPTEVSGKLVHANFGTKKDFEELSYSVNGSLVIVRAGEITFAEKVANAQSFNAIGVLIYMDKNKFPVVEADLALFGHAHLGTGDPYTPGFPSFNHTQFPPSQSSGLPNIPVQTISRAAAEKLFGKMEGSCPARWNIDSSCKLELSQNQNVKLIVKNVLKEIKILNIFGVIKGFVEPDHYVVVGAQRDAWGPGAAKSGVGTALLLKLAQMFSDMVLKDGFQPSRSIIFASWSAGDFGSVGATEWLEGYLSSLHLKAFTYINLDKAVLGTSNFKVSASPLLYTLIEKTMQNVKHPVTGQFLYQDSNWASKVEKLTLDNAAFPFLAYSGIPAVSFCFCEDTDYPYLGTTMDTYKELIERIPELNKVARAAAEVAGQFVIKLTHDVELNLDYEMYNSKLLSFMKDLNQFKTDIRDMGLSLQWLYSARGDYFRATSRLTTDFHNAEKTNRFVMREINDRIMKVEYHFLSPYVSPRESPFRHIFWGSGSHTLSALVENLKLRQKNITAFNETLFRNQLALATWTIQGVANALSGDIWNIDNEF


What was measured:
[1] = target: T2, ectodomain of human TfR1 (His10-hTfR1; SEQ ID NO:74) (human, UniProt P02786 89-760); test: indirect ELISA on coated hTfR1 ectodomain (1 ug/ml), Fab 1:3 dilutions, anti-human IgG F(ab')2-HRP [lower panel]
T2 construct: His-tagged ectodomain; also called ectodomain of hTfR1
T2 sequence (P02786 other isoform, or with tags, fused parts or gaps): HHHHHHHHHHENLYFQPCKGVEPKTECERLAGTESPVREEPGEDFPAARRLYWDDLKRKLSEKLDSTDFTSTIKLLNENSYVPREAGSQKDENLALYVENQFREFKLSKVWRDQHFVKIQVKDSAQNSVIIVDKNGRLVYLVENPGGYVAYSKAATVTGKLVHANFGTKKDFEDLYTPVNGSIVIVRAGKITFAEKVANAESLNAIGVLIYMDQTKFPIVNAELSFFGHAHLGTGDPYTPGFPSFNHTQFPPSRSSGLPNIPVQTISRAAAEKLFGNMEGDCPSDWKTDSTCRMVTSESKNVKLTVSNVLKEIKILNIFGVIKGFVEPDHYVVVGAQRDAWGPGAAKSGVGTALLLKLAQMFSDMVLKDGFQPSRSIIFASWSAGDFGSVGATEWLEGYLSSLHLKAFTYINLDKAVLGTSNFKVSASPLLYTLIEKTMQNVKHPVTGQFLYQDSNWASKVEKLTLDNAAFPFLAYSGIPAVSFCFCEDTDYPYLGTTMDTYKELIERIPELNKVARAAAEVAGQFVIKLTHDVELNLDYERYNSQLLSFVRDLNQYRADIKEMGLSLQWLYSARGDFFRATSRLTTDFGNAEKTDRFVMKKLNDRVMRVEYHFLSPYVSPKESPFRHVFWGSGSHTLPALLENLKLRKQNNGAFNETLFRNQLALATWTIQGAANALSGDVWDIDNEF
Protocol: For the indirect ELISA, half area 96-well plates (Corning, #3690) were coated with 1 μg/ml recombinant ectodomain of hTfR1 (SEQ ID NO:74) in PBS overnight at 4° C. The coated plates were blocked using Pierce protein-free blocking solution (Thermo Fisher Scientific, #37572) for 1 h at room temperature with shaking and washed four times in PBS containing 0.1% TWEEN-20. Serial dilutions (1:3) of various expressed constructs in incubation buffer (1% BSA, 0.1% TWEEN-20 in PBS) were incubated for 1 h at room temperature. […] Following four wash steps, K-Blue® Aqueous TMB substrate (Neogen, #331177) was added to the wells for 15 min at room temperature before the reaction was stopped with 1:1 dilution of 0.5 M H₂SO₄. The optical density at 450 nm was recorded (Spark, Tecan) and background signal was subtracted before analysis.

[2] = target: T1, chimeric TfR1 consisting of human …; test: indirect ELISA on coated h/m protease-like domain chimera (1 ug/ml), IgG dilution series; x axis printed 'TfR (ng/ml)' [D]
Protocol: Plasma samples serially diluted from a starting dilution of 1/450 or hybridoma supernatants diluted 1/2 were added to the plates (50 μl/well; dilution buffer: PBS with 0.1% BSA and 0.05% TWEEN®-20) and incubated for 2 h at room temperature and then the plates were washed four times. […] After another wash (as above), 50 μl/well TMB substrate (K-Blue® Aqueous, Neogen) was added, and the reaction was stopped after 10-15 min with 50 μl/well of 0.5 M H₂SO₄. The optical density at 450 nm was read using a plate reader (Tecan). The endpoint titers were defined as the dilution above the average of the blank wells (background) plus 3 standard deviations of the blank wells.
The coated plates were then blocked. Dilution series of mouse IgG of the analyzed antibodies were prepared in PBS and incubated on the ELISA plates. Unbound antibodies were then washed off before incubating wells with a HRP-conjugated secondary, anti-mouse-IgG for 1 h. Plates were then washed again before addition of HRP substrate TMB for development and detection of antibody binding to the wells. TMB development was stopped by adding 0.5 M H₂SO₄ to the wells and ELISA responses measured as the OD at 450 nm in an ELISA plate reader.

Row | Binder | EC50 (read off the curve) [1] [nM] | binding result [2]
1 | h26D3-Fab (humanized 26D3) (Fab, V domains shown, His-tagged Fab) VH: EVQLVQSGAEVKKPGSSVKVSCKASGYIFTDYNMDWVRQAPGQGLEWIGDINPDYDTTSYNEKFKGRATLTVDKSTSTAYMELSSLRSEDTAVYYCARGGYSGSSYYHPMDYWGQGTLVTVSS VL: DIQMTQSPSSVSASVGDRVTITCKSSQSLLYSTNQKNYLAWYQQKPGKAPKLLIYWASTRESGVPSRFSGSGSGTDFTLTISSLQPEDFATYYCQQYFIYPRTFGQGTKVEIK | ~400 | –
2 | h26D3 variant HC10 Fab (VH Y106A) (Fab, V domains shown, Single mutant, His-tagged Fab) VH: EVQLVQSGAEVKKPGSSVKVSCKASGYIFTDYNMDWVRQAPGQGLEWIGDINPDYDTTSYNEKFKGRATLTVDKSTSTAYMELSSLRSEDTAVYYCARGGYSGSSAYHPMDYWGQGTLVTVSS VL: DIQMTQSPSSVSASVGDRVTITCKSSQSLLYSTNQKNYLAWYQQKPGKAPKLLIYWASTRESGVPSRFSGSGSGTDFTLTISSLQPEDFATYYCQQYFIYPRTFGQGTKVEIK | ~1000 | –
3 | 26D3 (mouse monoclonal antibody) (antibody, V domains shown) VH: EVQLQQFGVELVKPGASVKISCKASGYIFTDYNMDWVKQSHGKSLEWIGDINPDYDTTSYNEKFKGKATLTVDKSSSTAYMELRSLTSEDTAVYYCARGGYSGSSYYHPMDYWGQGTSVTVSS VL: DIVMSQSPSSLAVSVGEKITMSCKSSQSLLYSTNQKNYLAWYQQKPGQSPELLIYWASTRESGVPDRFTGSGSGTDFTLTISNVRAEDLAVYYCQQYFIYPRTFGGGTKLEIK | – | binds
4 | 24B4 (mouse monoclonal antibody) (antibody, V domains shown) VH: EVQLQQFGAELVKPGTSVKISCKASGYTFTDYNMDWVKQGHGKGLEWIGDINPNYDTTSYSQKFKGKATLTVDKSSSTAYMELRSLTSEDTAVYYCARSEAGNYYWYFDVWGAGTTVTVSS VL: DIVMSQSPSSLAVSVGEKVTMSCKSSQSLLYSSNRKNYLAWYRQKPGQSPKLLIYWASTRESGVPDRFTGSGSGTDFTLTISSVKAEDLAVYSCQQYYNYPYTFGGGTKLEIK | – | binds
